Where no end group is shown, it is not given here.
Experiments:
K3a,eRh2 metallopeptide = target: T1, K3a,eRh2 metallopeptide (chain 1 pos 9 (heptad a) and pos 13 (heptad e): Glu side-chain carboxylates bridged by one dirhodium(II) centre, written E. N-terminal acetyl per paragraph 78. C-terminal form not stated.); test: thermal denaturation of an equimolar mixture, CD
T1 peptide: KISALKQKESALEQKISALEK

[1] = target: T2, CAL PDZ domain (CALP), wild type (UniProt Q9HD26 278-362); test: fluorescence anisotropy displacement of a fluorescent reporter peptide; apparent Ki, not significantly different from Rh2(OAc)4
Method: (§1) Protein binding studies: Fluorescence anisotropy inhibition binding assays were performed using standard procedures. […] Following equilibration, fluorescence anisotropy values were determined using a Tecan Infinite M1000 plate reader (n=3). Inhibitor equilibrium dissociation (Ki) constants were estimated as described. DMSO and rhodium(II) acetate were used as negative controls for unlabeled and labeled peptides, respectively.

[2] = target: T2, CAL PDZ domain (CALP), wild type; test: fluorescence anisotropy displacement of a fluorescent reporter peptide
Method: as §1

CALP-H301A mutant = CALP-H301A mutant (UniProt Q9HD26 278-362); test: as above
Method: as §1

B1: E3gC peptide (peptide)
peptide: Ac-EISALEKCISALEQEISALEK
B1: binds (K3a,eRh2 metallopeptide).

B2: VQD^RhTRL metallopeptide (peptide)
peptide: Ac-VQD(dirhodium)TRL-OH
modifications: also: dirhodium metal complex at Asp side-chain carboxylate
With B2 the Ki [1] was 6.3 µM.

B3: E^RhVQSTRL metallopeptide (peptide)
peptide: Ac-E(dirhodium)VQSTRL-OH
modifications: also: dirhodium metal complex at Glu side-chain carboxylate
Binder B3 has a Ki [2] of 0.56 µM and a Ki (CALP-H301A mutant) of 9.2 µM.

B4: E^RhWPTSII metallopeptide (peptide)
peptide: Ac-E(dirhodium)WPTSII-OH
modifications: also: dirhodium metal complex at Glu side chain
With B4 the Ki [2] was 1.7 µM.
